Binding signal (PBM E-score (-0.5 to 0.5)) data for 54 sequences are collected here from article PMC4434323.

Data set [1] concerns the target nhr-34 (F58G6.5) (Caenorhabditis elegans) (UniProt Q21006).
Data set [2] concerns the target T1, nhr-1 (R09G11.2) (Caenorhabditis elegans) (UniProt Q21878).
T1 sequence: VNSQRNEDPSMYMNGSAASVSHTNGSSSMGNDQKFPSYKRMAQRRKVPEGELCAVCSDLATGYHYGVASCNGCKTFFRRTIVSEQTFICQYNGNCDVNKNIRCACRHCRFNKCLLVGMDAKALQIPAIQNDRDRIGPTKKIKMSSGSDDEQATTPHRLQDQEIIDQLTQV

The target of data set [3] is T2, nhr-204 (R02C2.4) (Caenorhabditis elegans) (UniProt O44543).
T2 sequence: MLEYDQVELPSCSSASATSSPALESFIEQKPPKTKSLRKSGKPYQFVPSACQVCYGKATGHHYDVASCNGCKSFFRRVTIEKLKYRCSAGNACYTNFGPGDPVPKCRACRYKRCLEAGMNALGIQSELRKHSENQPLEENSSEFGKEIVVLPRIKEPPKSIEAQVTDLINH

Data set [4] concerns the target T3, nhr-3 (H01A20.1) (Caenorhabditis elegans) (UniProt Q9XTJ4).
T3 sequence: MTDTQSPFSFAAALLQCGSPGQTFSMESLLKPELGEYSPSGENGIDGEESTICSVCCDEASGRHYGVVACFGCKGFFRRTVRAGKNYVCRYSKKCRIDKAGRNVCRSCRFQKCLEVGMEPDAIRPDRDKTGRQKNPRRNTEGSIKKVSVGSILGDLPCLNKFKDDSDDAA

The target in data set [5] is T4, nhr-46 (C45E5.6) (Caenorhabditis elegans) (UniProt Q95QR2).
T4 sequence: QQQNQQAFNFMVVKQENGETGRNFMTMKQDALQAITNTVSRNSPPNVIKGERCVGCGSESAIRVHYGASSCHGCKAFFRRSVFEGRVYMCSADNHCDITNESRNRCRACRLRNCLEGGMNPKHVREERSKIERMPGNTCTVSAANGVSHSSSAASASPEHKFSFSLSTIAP

For data set [6], the target named is T5, atf-5 (T04C10.4) (Caenorhabditis elegans) (UniProt Q22156).
T5 sequence: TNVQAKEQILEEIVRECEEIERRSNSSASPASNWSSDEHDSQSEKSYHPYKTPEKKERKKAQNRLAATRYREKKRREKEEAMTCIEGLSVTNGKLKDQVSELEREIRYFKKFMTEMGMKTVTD

In data set [7] the target is atf-7 (C07G2.2) (Caenorhabditis elegans) (UniProt Q86MD3).
Data set [8] addresses T6, nhr-66 (T09A12.4) (Caenorhabditis elegans) (UniProt H2KYJ8).
T6 sequence: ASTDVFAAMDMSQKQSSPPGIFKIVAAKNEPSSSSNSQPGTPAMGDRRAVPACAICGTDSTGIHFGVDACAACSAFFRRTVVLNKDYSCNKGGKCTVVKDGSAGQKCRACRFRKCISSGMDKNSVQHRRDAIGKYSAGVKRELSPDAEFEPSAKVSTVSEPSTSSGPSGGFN

Data set [9] has as its target T7, atf-6 (F45E6.2) (Caenorhabditis elegans) (UniProt Q20435).
T7 sequence: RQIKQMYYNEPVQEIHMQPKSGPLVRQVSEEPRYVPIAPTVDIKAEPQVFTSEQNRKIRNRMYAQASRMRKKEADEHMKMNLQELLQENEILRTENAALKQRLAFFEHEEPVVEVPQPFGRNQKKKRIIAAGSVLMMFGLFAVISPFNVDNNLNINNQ

Data set [10] deals with T8, ceh-34 (C10G8.6) (Caenorhabditis elegans) (UniProt Q94165).
T8 sequence: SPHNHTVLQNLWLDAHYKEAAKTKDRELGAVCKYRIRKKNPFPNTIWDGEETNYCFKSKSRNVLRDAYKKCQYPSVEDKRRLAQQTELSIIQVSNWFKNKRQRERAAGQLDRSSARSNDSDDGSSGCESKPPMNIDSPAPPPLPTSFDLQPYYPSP

The target of data set [11] is T9, end-1 (F58E10.2) (Caenorhabditis elegans) (UniProt G5EDN4).
T9 sequence: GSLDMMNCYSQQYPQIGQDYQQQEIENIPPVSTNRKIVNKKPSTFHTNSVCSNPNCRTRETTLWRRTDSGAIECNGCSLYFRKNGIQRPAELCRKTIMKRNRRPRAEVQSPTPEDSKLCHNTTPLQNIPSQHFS

Chain of nhr-34 (F58G6.5) (Caenorhabditis elegans) (Q21006 99-268): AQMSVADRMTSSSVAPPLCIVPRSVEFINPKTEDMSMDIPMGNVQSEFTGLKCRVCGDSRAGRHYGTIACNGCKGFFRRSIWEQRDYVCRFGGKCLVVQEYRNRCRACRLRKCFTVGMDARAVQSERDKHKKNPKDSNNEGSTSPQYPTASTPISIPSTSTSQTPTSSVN
Chain of atf-7 (C07G2.2) (Caenorhabditis elegans) (Q86MD3 339-508): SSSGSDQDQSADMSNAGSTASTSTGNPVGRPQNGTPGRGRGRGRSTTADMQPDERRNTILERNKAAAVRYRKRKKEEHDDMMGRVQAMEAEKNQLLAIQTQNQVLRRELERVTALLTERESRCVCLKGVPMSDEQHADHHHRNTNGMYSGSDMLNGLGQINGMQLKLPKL

In the case of “GAGACCAA (double strand) [8-mer GAGACCAA]”, the binding signal (PBM E-score (-0.5 to 0.5)) in [1] turned out to be 0.475.

“AATGATCA (double strand) [8-mer AATGATCA]”: the binding signal (PBM E-score (-0.5 to 0.5)) in [2] is 0.493.

The sequence “AGGGATCA (double strand) [8-mer AGGGATCA]” showed a binding signal (PBM E-score (-0.5 to 0.5)) in [2] of 0.479.

Turning to “GTGATCAC (double strand) [8-mer GTGATCAC]”, the binding signal (PBM E-score (-0.5 to 0.5)) in data set [2] worked out at 0.489.

Sequence “GACCAAAA (double strand) [8-mer GACCAAAA]” yielded a binding signal (PBM E-score (-0.5 to 0.5)) in [3] of 0.476.

As to “AGTGATCA (double strand) [8-mer AGTGATCA]”, in data set [2], the binding signal (PBM E-score (-0.5 to 0.5)) turned out to be 0.495.

For the sequence “CAGACCAA (double strand) [8-mer CAGACCAA]”, in data set [3], the binding signal (PBM E-score (-0.5 to 0.5)) amounted to 0.479.

As for “TCTGATCA (double strand) [8-mer TCTGATCA]”, in data set [3], the binding signal (PBM E-score (-0.5 to 0.5)) came out at 0.482.

In data set [3], “TAGACCAA (double strand) [8-mer TAGACCAA]” showed a binding signal (PBM E-score (-0.5 to 0.5)) of 0.479.

In turn, “AATTGATC (double strand) [8-mer AATTGATC]” displayed a binding signal (PBM E-score (-0.5 to 0.5)) in data set [3] of 0.477.

On to “AGATCAAC (double strand) [8-mer AGATCAAC]”, for which the binding signal (PBM E-score (-0.5 to 0.5)) in data set [4] worked out at 0.467; in data set [1], 0.478; in [5], 0.483.

Consider “CGTCAGCA (double strand) [8-mer CGTCAGCA]”, for which the binding signal (PBM E-score (-0.5 to 0.5)) in [6] turned out to be 0.457.

Take “AATGACGT (double strand) [8-mer AATGACGT]”: the values for the binding signal (PBM E-score (-0.5 to 0.5)) in data set [6] and in data set [7] were 0.459 and 0.497, respectively.

Turning to “ACTACACG (double strand) [8-mer ACTACACG]”, the binding signal (PBM E-score (-0.5 to 0.5)) in [8] is 0.481.

For the sequence “ACGTCAGC (double strand) [8-mer ACGTCAGC]”, the binding signal (PBM E-score (-0.5 to 0.5)) in data set [6] amounted to 0.491; in data set [9], 0.469.

For “ACTACAAC (double strand) [8-mer ACTACAAC]”, the binding signal (PBM E-score (-0.5 to 0.5)) in [8] was 0.482.

Sequence “AAACTACA (double strand) [8-mer AAACTACA]” showed a binding signal (PBM E-score (-0.5 to 0.5)) in data set [8] of 0.484.

Sequence “AAGATCAC (double strand) [8-mer AAGATCAC]” showed a binding signal (PBM E-score (-0.5 to 0.5)) in data set [4] of 0.471.

For “AATGTAGT (double strand) [8-mer AATGTAGT]”, in data set [8], the binding signal (PBM E-score (-0.5 to 0.5)) was 0.48.

Sequence “GAGTTCAA (double strand) [8-mer GAGTTCAA]” had a binding signal (PBM E-score (-0.5 to 0.5)) in data set [1] of 0.471.

In data set [4], “ATAGATCA (double strand) [8-mer ATAGATCA]” returned a binding signal (PBM E-score (-0.5 to 0.5)) of 0.466.

“CTGATCAA (double strand) [8-mer CTGATCAA]” came in with a binding signal (PBM E-score (-0.5 to 0.5)) in [3] of 0.481.

Regarding “ACTGATCA (double strand) [8-mer ACTGATCA]”, the figures for the binding signal (PBM E-score (-0.5 to 0.5)) in data set [3] and in data set [2] were 0.477 and 0.478, respectively.

For the sequence “ATGATCAC (double strand) [8-mer ATGATCAC]”, the binding signal (PBM E-score (-0.5 to 0.5)) in data set [2] came out at 0.486.

In data set [8], “AACTACAC (double strand) [8-mer AACTACAC]” registered a binding signal (PBM E-score (-0.5 to 0.5)) of 0.486.

With “CGAGATCA (double strand) [8-mer CGAGATCA]”, the binding signal (PBM E-score (-0.5 to 0.5)) stood at 0.472 in data set [1] and 0.46 in [5].

As to “GAGATCAA (double strand) [8-mer GAGATCAA]”, the values for the binding signal (PBM E-score (-0.5 to 0.5)) in data set [4], in data set [1] and in data set [5] were 0.46, 0.491 and 0.495, respectively.

On to “GGAGATCA (double strand) [8-mer GGAGATCA]”, for which, in data set [1], the binding signal (PBM E-score (-0.5 to 0.5)) is 0.473.

As to “AGATCAAT (double strand) [8-mer AGATCAAT]”, the figures for the binding signal (PBM E-score (-0.5 to 0.5)) in data set [4], in data set [1] and in data set [5] were 0.473, 0.486 and 0.49, respectively.

As to “ATTGATCA (double strand) [8-mer ATTGATCA]”, the binding signal (PBM E-score (-0.5 to 0.5)) is 0.489 in data set [3] and 0.479 in [2].

In data set [8], “CAACTACA (double strand) [8-mer CAACTACA]” showed a binding signal (PBM E-score (-0.5 to 0.5)) of 0.484.

Turning to “AGAGATCA (double strand) [8-mer AGAGATCA]”, the binding signal (PBM E-score (-0.5 to 0.5)) in data set [2] came out at 0.474; in data set [4], 0.462; in data set [1] it was 0.488; in data set [5], 0.478.

The sequence “ACTACACA (double strand) [8-mer ACTACACA]” yielded a binding signal (PBM E-score (-0.5 to 0.5)) in data set [8] of 0.484.

For “CAAGATCA (double strand) [8-mer CAAGATCA]”, the binding signal (PBM E-score (-0.5 to 0.5)) in data set [1] came to 0.474; in [5], 0.463.

Sequence “TGATCAAA (double strand) [8-mer TGATCAAA]” registered a binding signal (PBM E-score (-0.5 to 0.5)) in data set [3] of 0.483.

For the sequence “GTGATCAA (double strand) [8-mer GTGATCAA]”, the binding signal (PBM E-score (-0.5 to 0.5)) is 0.478 in [3] and 0.472 in [2].

“CGTCATCC (double strand) [8-mer CGTCATCC]” came in with a binding signal (PBM E-score (-0.5 to 0.5)) in data set [6] of 0.487.

With “AAGATCAG (double strand) [8-mer AAGATCAG]”, the binding signal (PBM E-score (-0.5 to 0.5)) in [4] was 0.466; in [1] it was 0.47.

With “ACAGATCA (double strand) [8-mer ACAGATCA]”, in data set [4], the binding signal (PBM E-score (-0.5 to 0.5)) came out at 0.456.

For “GAAGATCA (double strand) [8-mer GAAGATCA]”, the binding signal (PBM E-score (-0.5 to 0.5)) in data set [1] and in data set [5] was 0.466 throughout.

For the sequence “GGTGATCA (double strand) [8-mer GGTGATCA]”, the binding signal (PBM E-score (-0.5 to 0.5)) in data set [2] is 0.488.

Regarding “AGGTCAAC (double strand) [8-mer AGGTCAAC]”, the binding signal (PBM E-score (-0.5 to 0.5)) in data set [4] is 0.465.

With “ATGATCAT (double strand) [8-mer ATGATCAT]”, the binding signal (PBM E-score (-0.5 to 0.5)) in data set [2] turned out to be 0.476.

On to “GATGATCA (double strand) [8-mer GATGATCA]”, for which the binding signal (PBM E-score (-0.5 to 0.5)) in data set [2] amounted to 0.488.

In turn, “ACTACACT (double strand) [8-mer ACTACACT]” had a binding signal (PBM E-score (-0.5 to 0.5)) in data set [8] of 0.487.

For “TGATATCA (double strand) [8-mer TGATATCA]”, the binding signal (PBM E-score (-0.5 to 0.5)) came to 0.483 in [10], 0.474 in data set [6] and 0.493 in data set [11].

Turning to “AGACCAAT (double strand) [8-mer AGACCAAT]”, in data set [3], the binding signal (PBM E-score (-0.5 to 0.5)) was determined as 0.486.

“GTTGATCA (double strand) [8-mer GTTGATCA]”: the binding signal (PBM E-score (-0.5 to 0.5)) in [3] was determined as 0.482; in [2], 0.477.

Regarding “AATTGGTC (double strand) [8-mer AATTGGTC]”, in data set [3], the binding signal (PBM E-score (-0.5 to 0.5)) is 0.484.

Consider “TAAGATCA (double strand) [8-mer TAAGATCA]”, for which the figures for the binding signal (PBM E-score (-0.5 to 0.5)) in data set [4] and in data set [5] were 0.477 and 0.474, respectively.

Turning to “CTGACGTA (double strand) [8-mer CTGACGTA]”, the binding signal (PBM E-score (-0.5 to 0.5)) in data set [6] stood at 0.455; in [9], 0.474.

Consider “TTGATCAA (double strand) [8-mer TTGATCAA]”, for which the binding signal (PBM E-score (-0.5 to 0.5)) in data set [3] turned out to be 0.493; in data set [1] it was 0.481.

In [2], “AGCGATCA (double strand) [8-mer AGCGATCA]” came in with a binding signal (PBM E-score (-0.5 to 0.5)) of 0.476.

Sequence “CGTCAGCC (double strand) [8-mer CGTCAGCC]” returned a binding signal (PBM E-score (-0.5 to 0.5)) in [6] of 0.491.
